T1: MERS Receptor Binding Domain (RBD) protein (MERS virus, UniProt K9N5Q8 367-606)
T1 construct: also called Middle East Respiratory Syndrome (MERS) virus
T1 sequence: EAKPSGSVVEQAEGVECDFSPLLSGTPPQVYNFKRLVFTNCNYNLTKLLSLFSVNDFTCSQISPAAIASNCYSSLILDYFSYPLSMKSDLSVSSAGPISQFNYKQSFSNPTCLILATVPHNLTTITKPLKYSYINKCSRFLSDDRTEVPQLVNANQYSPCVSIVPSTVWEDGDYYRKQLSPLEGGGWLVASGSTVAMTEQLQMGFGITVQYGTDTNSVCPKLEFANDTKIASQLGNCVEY


Experiments:
[1] = target: SARS-CoV-2 Receptor Binding Domain (RBD) protein (SARS-CoV-2, UniProt P0DTC2 319-541)
[2] = target: T2, SARS-CoV-1 Receptor Binding Domain (RBD) protein (SARS-CoV-1, UniProt P59594 306-527); assay: SPR; clone listed as COV2 only at the 21st table, row 52, column 3
T2 construct: also called SARS1

[3] = target: T1, MERS Receptor Binding Domain (RBD) …; assay: as above
[4] = target: T2, SARS-CoV-1 Receptor Binding Domain …; assay: SPR; clone listed as COV2 only at the 21st table, row 33, column 3
[5] = target: T1, MERS Receptor Binding Domain (RBD) …; assay: as above
[6] = target: T2, SARS-CoV-1 Receptor Binding Domain …; assay: SPR; clone listed as COV2 only at the 21st table, row 34, column 3
[7] = target: T1, MERS Receptor Binding Domain (RBD) …; assay: as above
[8] = target: T2, SARS-CoV-1 Receptor Binding Domain …; assay: SPR; clone listed as COV2 only at the 21st table, row 36, column 3
[9] = target: T1, MERS Receptor Binding Domain (RBD) …; assay: as above
[10] = target: T2, SARS-CoV-1 Receptor Binding Domain …; assay: SPR; clone listed as COV2 only at the 21st table, row 32, column 3
[11] = target: T1, MERS Receptor Binding Domain (RBD) …; assay: as above
[12] = target: T2, SARS-CoV-1 Receptor Binding Domain …; assay: SPR; clone listed as COV2 only at the 21st table, row 37, column 3
[13] = target: T1, MERS Receptor Binding Domain (RBD) …; assay: as above
[14] = target: T2, SARS-CoV-1 Receptor Binding Domain …; assay: SPR; clone listed as COV2 only at the 21st table, row 30, column 3
[15] = target: T1, MERS Receptor Binding Domain (RBD) …; assay: as above
[16] = target: T2, SARS-CoV-1 Receptor Binding Domain …; assay: SPR; clone listed as COV2 only at the 21st table, row 45, column 3
[17] = target: T1, MERS Receptor Binding Domain (RBD) …; assay: as above
[18] = target: T2, SARS-CoV-1 Receptor Binding Domain …; assay: SPR; clone listed as COV2 only at the 21st table, row 51, column 3
[19] = target: T1, MERS Receptor Binding Domain (RBD) …; assay: as above
[20] = target: T2, SARS-CoV-1 Receptor Binding Domain …; assay: SPR; clone listed as COV2 only at the 21st table, row 43, column 3
[21] = target: T1, MERS Receptor Binding Domain (RBD) …; assay: as above
[22] = target: T2, SARS-CoV-1 Receptor Binding Domain …; assay: SPR; clone listed as COV2 only at the 21st table, row 8, column 3
[23] = target: T1, MERS Receptor Binding Domain (RBD) …; assay: as above
[24] = target: T2, SARS-CoV-1 Receptor Binding Domain …; assay: SPR; clone listed as COV2 only at the 21st table, row 35, column 3
[25] = target: T1, MERS Receptor Binding Domain (RBD) …; assay: as above

Binder	Kd [1] [nM]	koff [1] [s⁻¹]	kon [1] [M⁻¹ s⁻¹]	also measured
COVID19_P22_C09 (scFv, V domains shown) VH: QVQLVQSGAEVKKPGSSVKVSCKASGYNFTDYHIQWVRQAPGQGLEWVGMIIPRHGGTAYAQRFQGRVTITADESTSTAYMELSSLRSEDTAVYYCAGGSGLTTPMDVWGQGTLVTVSS VL: not shown	32.8	0.0083	250000	binding result [2]: no binding (tested: up to 300 nM); binding result [3]: no binding (tested: up to 300 nM)
COVID19_P21_A12 (scFv, V domains shown) VH: QVQLVQSGAEVKKPGSSVKVSCKASGGTFSSYAISWVRQAPGQGLEWMGSVIPVFGRPNYAQKFQGRVTITADESTSTAYMELSSLRSEDTAVYYCAGEWGISTPMDVWGQGTLVTVSS VL: not shown	6.01	0.000911	152000	binding result [4]: no binding (tested: up to 300 nM); binding result [5]: no binding (tested: up to 300 nM)
COVID19_P21_B08 (scFv, V domains shown) VH: QVQLVQSGAEVKKPGSSVKVSCKASGGTFSSYAISWVRQAPGQGLEWMGVINTGGGSVTYAQKFQGRVTITADESTSTAYMELSSLRSEDTAVYYCAGHWGISTPMDVWGQGTLVTVSS VL: not shown	2.95	0.000344	117000	binding result [6]: no binding (tested: up to 300 nM); binding result [7]: no binding (tested: up to 300 nM)
COVID19_P09_A09 (scFv, V domains shown) VH: QVQLVQSGAEVKKPGSSVKVSCKASGGTFSSYAISWVRQAPGQGLEWMGIIYPGDSTTRYSQKFQGRVTITADESTSTAYMELSSLRSEDTAVYYCYSGSGISTPMDVWGQGTLVTVSS VL: not shown	0.5	5.7e-05	109000	binding result [8]: no binding (tested: up to 300 nM); binding result [9]: no binding (tested: up to 300 nM)
COVID19_P21_F04 (scFv, V domains shown) VH: QVQLVQSGAEVKKPGSSVKVSCKASGGTFSSYAISWVRQAPGQGLEWMGQINPSGDSTRYAQKFQGRVTITADESTSTAYMELSSLRSEDTAVYYCAGGSGISTPMDVWGQGTLVTVSS VL: not shown	8.81	0.00037	41900	binding result [10]: no binding (tested: up to 300 nM); binding result [11]: no binding (tested: up to 300 nM)
COVID19_P22_B12 (scFv, V domains shown) VH: QVQLVQSGAEVKKPGSSVKVSCKASGGTLSSYAISWVRQAPGQGLEWMGIIYPGDSETRYSQKFQGRVTITADESTSTAYMELSSLRSEDTAVYYCAGGSGISTPRSVWGQGTLVTVSS VL: DIVMTQSPDSLAVSLGERATINCKSSRILSYSPDNKNYLAWYQQKPGQPPKLLIYWASTRESGVPDRFSGSGSGTDFTLTISSLQAEDVAVYYCQQSYITPYTFGGGTKVEIKR	4.24	0.00036	85000	binding result [12]: no binding (tested: up to 300 nM); binding result [13]: no binding (tested: up to 300 nM)
COVID19_P10_B06 (scFv, V domains shown) VH: QVQLVQSGAEVKKPGSSVKVSCKASGGTFSSYAISWVRQAPGQGLEWMGIIYPGDSTTRYSQKFQGRVTITADESTSTAYMELSSLRSEDTAVYYCYSGSGISTPMDVWGQGTLVTVSS VL: not shown	0.29	5.7e-05	200000	binding result [14]: no binding (tested: up to 300 nM); binding result [15]: no binding (tested: up to 300 nM)
COVID19_P09_D06 (scFv, V domains shown) VH: QVQLVQSGAEVKKPGSSVKVSCKASGYGFITYWIGWVRQAPGQGLEWMGIIYPGDSETRYAQKFQGRVTITADESTSTAYMELSSLRSEDTAVYYCAGGSGIYVPMDVWGQGTLVTVSS VL: not shown	16.4	0.00538	328000	binding result [16]: no binding (tested: up to 300 nM); binding result [17]: no binding (tested: up to 300 nM)
COVID19_P21_H01 (scFv, V domains shown) VH: QVQLVQSGAEVKKPGSSVKVSCKASGYGFSTYWIGWVRQAPGQGLEWMGWINPNSGGTNYAQKFQGRVTITADESTSTAYMELSSLRSEDTAVYYCAGGSGISTPMDVWGQGTLVTVSS VL: not shown	1.38	0.00022	160000	binding result [18]: no binding (tested: up to 300 nM); binding result [19]: no binding (tested: up to 300 nM)
COVID19_P22_B04 (scFv, V domains shown) VH: QVQLVQSGAEVKKPGSSVKVSCKASGYGFITYWIGWVRQAPGQGLEWMGIIYPGDSETRYAQKFQGRVTITADESTSTAYMELSSLRSEDTAVYYCAGGEGISTPMDVWGQGTLVTVSS VL: not shown	26.1	0.015	570000	binding result [20]: no binding (tested: up to 300 nM); binding result [21]: no binding (tested: up to 300 nM)
COVID19_P22_G12 (scFv, V domains shown) VH: QVQLVQSGAEVKKPGSSVKVSCKASGGGFITYWIGWVRQAPGQGLEWMGIIYPGDSETRYSQKFQGRVTITADESTSTAYMELSSLRSEDTAVYYCAGGSGISTPMDVWGQGTLVTVSS VL: not shown	38.3	0.016	410000	binding result [22]: no binding (tested: up to 300 nM); binding result [23]: no binding (tested: up to 300 nM)
COVID19_P21_F08 (scFv, V domains shown) VH: QVQLVQSGAEVKKPGSSVKVSCKASGGTFSTYAFNWVRQAPGQGLEWMGVINTGGGSVTYAQKFQGRVTITADESTSTAYMELSSLRSEDTAVYYCAGGSGISTPGAVWGQGTLVTVSS VL: not shown	16.3	0.000893	54900	binding result [24]: no binding (tested: up to 300 nM); binding result [25]: no binding (tested: up to 300 nM)
